Results published in US20210171613A1 (NATIONAL RESEARCH COUNCIL OF CANADA, published 2021).
Positions count from the first letter of the chain named. Names may count otherwise.

B1: A26.8 VHH mutant Q106F (VHH, not shown: small tags and cut ends)
VHH: QVKLEESGGGLVQAGGSLRLSCAASERTFSRYPVAWFRQAPGAEREFVAVISSTGTSTYYADSVKGRFTISRDNAKVTVYLQMNNLKREDTAVYFCAVNSQRTRLFDPNEYDYWGQGTQVTVSS
B2: A26.8 VHH mutant Q106L (VHH, not shown: small tags and cut ends)
VHH: B1 VHH with F106L
B3: A26.8 VHH mutant Q106Y (VHH, not shown: small tags and cut ends)
VHH: B1 VHH with F106Y
B4: A26.8 VHH mutant Q106W (VHH, not shown: small tags and cut ends)
VHH: B1 VHH with F106W
B5: A26.8 VHH mutant S53R (VHH, not shown: small tags and cut ends)
VHH: B1 VHH with S53R, F106Q
B6: A26.8-T56R, T103R (VHH, not shown: small tags and cut ends)
VHH: B1 VHH with T56R, T103R, F106Q
notes: also called lead double mutant; best double mutant
B7: A26.8-T56R, Q101K, T103R (VHH, not shown: small tags and cut ends)
VHH: B1 VHH with T56R, Q101K, T103R, F106Q
notes: also called lead triple mutant; best triple mutant

Legend:
[1] = molecular target: T1, Clostridium difficile toxin A (TcdA) (Clostridium difficile, UniProt P16154 1-2710); experiment: SPR (Biacore 3000), VHH over immobilized TcdA, steady-state analysis
T1 construct: mature; also called full-length TcdA
Method: (§1) Before surface plasmon resonance (SPR) binding experiments, IMAC-purified VHHs were subjected to de-salting and further purification by size-exclusion chromatography (SEC). Approximately 500 μg of each VHH was injected over a Superdex 75 Increase 10/300 GL SEC column (GE Healthcare) in Biacore running buffer HBS-EP (10 mM HEPES pH 7.4, 150 mM NaCl, 3 mM EDTA, 0.005% (v/v) P20; GE Healthcare) under the control of an ÄKTA FPLC at 0.8 mL/min. Monomeric VHH fractions were collected and analyzed for binding to TcdA using a Biacore 3000 SPR instrument (GE Healthcare). Approximately 4,500 resonance units (RUs) of TcdA (List Biological Laboratories, Campbell, Calif.) were immobilized on a CM5 sensor chip (GE Healthcare) using the conditions previously described (Hussack et al, 2011). HBS-EP running buffer was used for all binding studies and regeneration of TcdA surfaces. Next, various dilution ranges of VHHs (as low as 10 nM-0.5 nM to as high as 5 μM-50 nM) were injected over immobilized TcdA at a flow rate of 40 μL/min with 120 s contact time and 600 s dissociation. Reference-subtracted sensorgrams were analyzed with BIAevaluation software (GE Healthcare) and fit to a 1:1 binding model. In cases where rapid kₒₙ and koff rate constants were observed, equilibrium dissociation constants (KDs) were determined by steady-state analysis.

[2] = molecular target: T1, Clostridium difficile toxin A (TcdA); experiment: SPR on immobilized TcdA
Method: as §1
The location of these mutations relative to the antigen epitope is illustrated in FIG. 2C.

[3] = molecular target: T1, Clostridium difficile toxin A (TcdA); experiment: SPR (Biacore 3000), VHH over immobilized TcdA; ratio of parent KD to mutant KD
Method: as §1

[4] = molecular target: T1, Clostridium difficile toxin A (TcdA); experiment: SPR (Biacore 3000), VHH over immobilized TcdA; binding free energy difference relative to parent VHH
Method: as §1

[5] = molecular target: T1, Clostridium difficile toxin A (TcdA); experiment: SPR (Biacore 3000), VHH over immobilized TcdA, 1:1 fit
Method: as §1

[6] = molecular target: T1, Clostridium difficile toxin A (TcdA); experiment: cell-based or functional assay

T1 sequence (P16154 whole entry): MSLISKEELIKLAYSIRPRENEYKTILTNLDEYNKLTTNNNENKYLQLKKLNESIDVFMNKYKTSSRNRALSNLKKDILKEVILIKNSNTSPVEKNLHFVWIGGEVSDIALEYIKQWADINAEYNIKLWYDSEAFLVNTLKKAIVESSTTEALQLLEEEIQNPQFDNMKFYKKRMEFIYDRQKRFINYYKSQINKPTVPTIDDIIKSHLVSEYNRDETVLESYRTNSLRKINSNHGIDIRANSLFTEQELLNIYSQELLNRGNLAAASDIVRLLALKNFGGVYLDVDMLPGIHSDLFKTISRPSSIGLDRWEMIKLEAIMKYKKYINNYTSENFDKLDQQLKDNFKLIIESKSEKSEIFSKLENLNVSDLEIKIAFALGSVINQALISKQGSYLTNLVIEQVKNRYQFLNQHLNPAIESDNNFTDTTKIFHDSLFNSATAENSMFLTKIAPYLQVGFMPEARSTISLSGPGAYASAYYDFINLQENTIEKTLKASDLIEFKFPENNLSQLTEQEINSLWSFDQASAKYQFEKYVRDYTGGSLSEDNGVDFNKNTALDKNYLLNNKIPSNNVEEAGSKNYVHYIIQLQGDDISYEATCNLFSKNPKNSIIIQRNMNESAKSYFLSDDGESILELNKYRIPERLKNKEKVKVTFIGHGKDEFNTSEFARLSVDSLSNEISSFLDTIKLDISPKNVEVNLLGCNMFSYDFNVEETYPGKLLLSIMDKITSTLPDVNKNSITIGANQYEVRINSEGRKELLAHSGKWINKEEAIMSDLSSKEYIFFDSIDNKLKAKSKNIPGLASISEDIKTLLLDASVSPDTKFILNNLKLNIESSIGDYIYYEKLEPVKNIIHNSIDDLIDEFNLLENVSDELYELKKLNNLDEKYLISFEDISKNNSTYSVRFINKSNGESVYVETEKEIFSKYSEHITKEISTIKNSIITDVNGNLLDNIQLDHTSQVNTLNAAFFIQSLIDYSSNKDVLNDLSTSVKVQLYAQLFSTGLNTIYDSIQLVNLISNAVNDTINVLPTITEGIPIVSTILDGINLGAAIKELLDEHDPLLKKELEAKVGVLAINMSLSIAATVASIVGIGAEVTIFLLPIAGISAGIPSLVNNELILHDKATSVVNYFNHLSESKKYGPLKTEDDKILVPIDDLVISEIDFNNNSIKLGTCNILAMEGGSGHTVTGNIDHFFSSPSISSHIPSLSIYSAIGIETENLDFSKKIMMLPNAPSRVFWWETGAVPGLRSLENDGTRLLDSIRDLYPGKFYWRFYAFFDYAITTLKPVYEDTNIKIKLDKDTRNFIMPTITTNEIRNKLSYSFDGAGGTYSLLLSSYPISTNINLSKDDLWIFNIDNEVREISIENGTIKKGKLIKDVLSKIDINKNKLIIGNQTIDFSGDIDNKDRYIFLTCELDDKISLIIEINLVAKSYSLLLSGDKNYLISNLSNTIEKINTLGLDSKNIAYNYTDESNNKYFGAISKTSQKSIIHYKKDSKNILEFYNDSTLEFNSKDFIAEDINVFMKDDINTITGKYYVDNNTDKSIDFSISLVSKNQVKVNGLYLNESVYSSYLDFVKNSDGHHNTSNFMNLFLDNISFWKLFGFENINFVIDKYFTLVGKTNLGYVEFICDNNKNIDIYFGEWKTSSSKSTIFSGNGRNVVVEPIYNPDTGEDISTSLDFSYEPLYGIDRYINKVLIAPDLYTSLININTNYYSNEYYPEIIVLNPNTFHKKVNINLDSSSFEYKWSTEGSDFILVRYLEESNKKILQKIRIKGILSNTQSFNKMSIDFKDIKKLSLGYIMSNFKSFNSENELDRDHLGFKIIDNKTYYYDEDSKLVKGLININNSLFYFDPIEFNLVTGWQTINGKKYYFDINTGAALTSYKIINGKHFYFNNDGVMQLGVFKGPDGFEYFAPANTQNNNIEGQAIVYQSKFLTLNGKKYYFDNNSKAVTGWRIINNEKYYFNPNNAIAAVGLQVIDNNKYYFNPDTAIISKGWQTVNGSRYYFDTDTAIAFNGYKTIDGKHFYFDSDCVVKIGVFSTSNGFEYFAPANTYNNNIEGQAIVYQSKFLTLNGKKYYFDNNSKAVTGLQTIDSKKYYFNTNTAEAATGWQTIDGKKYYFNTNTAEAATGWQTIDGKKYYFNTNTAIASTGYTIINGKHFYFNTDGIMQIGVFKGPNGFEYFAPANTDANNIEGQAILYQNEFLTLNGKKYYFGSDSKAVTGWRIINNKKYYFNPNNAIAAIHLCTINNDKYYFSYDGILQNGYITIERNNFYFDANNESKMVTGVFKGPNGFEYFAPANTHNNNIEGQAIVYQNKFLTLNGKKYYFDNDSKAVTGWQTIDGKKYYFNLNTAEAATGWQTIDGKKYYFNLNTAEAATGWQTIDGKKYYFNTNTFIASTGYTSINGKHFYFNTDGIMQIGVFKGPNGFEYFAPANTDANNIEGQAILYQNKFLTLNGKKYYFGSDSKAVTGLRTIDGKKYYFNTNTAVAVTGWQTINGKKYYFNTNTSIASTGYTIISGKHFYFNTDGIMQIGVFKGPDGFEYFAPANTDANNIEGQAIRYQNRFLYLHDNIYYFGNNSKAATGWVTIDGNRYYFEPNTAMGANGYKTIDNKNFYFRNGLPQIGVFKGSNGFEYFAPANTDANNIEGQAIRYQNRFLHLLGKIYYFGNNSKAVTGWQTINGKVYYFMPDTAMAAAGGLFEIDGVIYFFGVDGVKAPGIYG

Binder | Kd [1] [nM] | fold decrease in affinity relative to parent A26.8 VHH [2] [fold] | KD^WT/KD [3] | ΔΔG [4] [kcal/mol] | Kd [5] [nM] | koff [5] [s⁻¹] | kon [5] [M⁻¹ s⁻¹] | fold affinity improvement relative to parent A26.8 VHH [2] [fold] | fold increase in kon relative to parent A26.8 VHH [2] [fold] | TcdA IC50, TcdA-induced Vero cell cytotoxicity (WST-1) [6] [nM] | fold increase in neutralization potency relative to parent A26.8 VHH [6] [fold] | maximal TcdA inhibition level [6] [%] | fold change in kon relative to original A26.8 [2] [fold] | fold improvement of KD relative to original A26.8 [2] [fold]
B1 | 5130 | 30 to 300 | 0.004 | 3.28 |  |  |  |  |  |  |  |  |  | 
B2 | 612 | 30 to 300 | 0.03 | 2.04 |  |  |  |  |  |  |  |  |  | 
B3 | 2320 |  | 0.008 | 2.82 |  |  |  |  |  |  |  |  |  | 
B4 | 1480 |  | 0.01 | 2.55 |  |  |  |  |  |  |  |  |  | 
B5 | 224 | ~10 | 0.08 | 1.45 |  |  |  |  |  |  |  |  |  | 
B6 |  |  | 8.1 | -1.22 | 2.32 | 0.0193 | 8.33e+06 | 8 | > 6 | ~12 | 6 | ~70 |  | 
B7 |  |  | 9.4 | -1.31 | 1.98 | 0.0241 | 1.23e+07 |  |  | ~12 | 6 | ~70 | ~7 | 10
